Experimental data as given in article PMC12748766, “Structural basis for human chondroitin sulfate chain polymerization” (Nature Communications, 2025).

Tests used:
Assay in all cases: mass photometry; Refeyn OneMP; purified complexes diluted in 20 mM MES pH 6.5, 150 mM NaCl to around 25 nM
Settings in all cases: both partners purified
[1] = target: T1, CHSY3^H831A, secreted construct aa157-aa882 (human, UniProt Q70JA7 157-882, H831A)
T1 construct: CHSY3, human, UniProt Q70JA7, residues 157-882, mutation in the C-terminal GT domain; source: Freestyle 293-F cells, co-transfected with CHPF, secreted; purified by the same protocol as the wild-type complexes; not shown: SUMO, N-terminal, cleaved; His6, N-terminal, cleaved
T1 sequence (looked up): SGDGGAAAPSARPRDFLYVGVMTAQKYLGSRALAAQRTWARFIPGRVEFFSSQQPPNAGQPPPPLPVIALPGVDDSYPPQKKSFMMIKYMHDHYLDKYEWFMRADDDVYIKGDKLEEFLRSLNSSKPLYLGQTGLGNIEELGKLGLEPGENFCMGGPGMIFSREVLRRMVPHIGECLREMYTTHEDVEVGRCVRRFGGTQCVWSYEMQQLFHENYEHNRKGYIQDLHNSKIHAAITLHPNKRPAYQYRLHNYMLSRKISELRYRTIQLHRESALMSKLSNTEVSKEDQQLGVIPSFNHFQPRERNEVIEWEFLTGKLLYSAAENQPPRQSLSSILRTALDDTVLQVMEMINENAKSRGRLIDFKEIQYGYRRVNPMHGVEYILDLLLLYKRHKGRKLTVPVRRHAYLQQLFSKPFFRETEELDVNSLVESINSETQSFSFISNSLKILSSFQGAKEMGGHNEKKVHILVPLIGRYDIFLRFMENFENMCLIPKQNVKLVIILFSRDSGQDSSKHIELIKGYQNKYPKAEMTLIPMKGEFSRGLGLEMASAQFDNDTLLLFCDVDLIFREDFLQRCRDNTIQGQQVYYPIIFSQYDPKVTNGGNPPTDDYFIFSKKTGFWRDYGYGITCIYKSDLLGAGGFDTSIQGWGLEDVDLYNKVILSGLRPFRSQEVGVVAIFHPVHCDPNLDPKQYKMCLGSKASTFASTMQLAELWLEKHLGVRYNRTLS

[2] = target: T2, CHSY3^D718N/D720N, secreted construct aa157-aa882 (human, UniProt Q70JA7 157-882, D718N | D720N)
T2 construct: CHSY3, human, UniProt Q70JA7, residues 157-882, mutations in the DxD motif of the C-terminal GT domain; source: Freestyle 293-F cells, co-transfected with CHPF, secreted; purified by the same protocol as the wild-type complexes; not shown: SUMO, N-terminal, cleaved; His6, N-terminal, cleaved
T2 sequence (looked up): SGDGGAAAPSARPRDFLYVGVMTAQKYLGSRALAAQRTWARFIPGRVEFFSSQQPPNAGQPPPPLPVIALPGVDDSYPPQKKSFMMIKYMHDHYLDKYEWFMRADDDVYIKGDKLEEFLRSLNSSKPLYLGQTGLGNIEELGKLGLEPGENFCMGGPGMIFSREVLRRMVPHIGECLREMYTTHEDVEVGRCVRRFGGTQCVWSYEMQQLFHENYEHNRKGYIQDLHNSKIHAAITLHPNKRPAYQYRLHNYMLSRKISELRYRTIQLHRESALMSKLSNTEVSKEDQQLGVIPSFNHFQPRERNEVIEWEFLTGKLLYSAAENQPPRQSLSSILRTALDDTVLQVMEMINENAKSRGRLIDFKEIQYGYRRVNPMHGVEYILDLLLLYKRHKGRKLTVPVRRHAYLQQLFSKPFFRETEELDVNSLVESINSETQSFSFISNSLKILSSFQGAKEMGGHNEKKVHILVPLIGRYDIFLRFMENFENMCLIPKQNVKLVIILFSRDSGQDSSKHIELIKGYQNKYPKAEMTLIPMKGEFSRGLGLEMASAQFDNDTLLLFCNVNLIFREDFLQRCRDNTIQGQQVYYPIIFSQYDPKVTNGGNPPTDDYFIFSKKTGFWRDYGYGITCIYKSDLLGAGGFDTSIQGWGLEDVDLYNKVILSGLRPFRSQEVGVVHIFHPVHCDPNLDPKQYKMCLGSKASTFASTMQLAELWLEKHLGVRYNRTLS

[3] = target: T3, CHSY3^D261N/D263N, secreted construct aa157-aa882 (human, UniProt Q70JA7 157-882, D261N | D263N)
T3 construct: CHSY3, human, UniProt Q70JA7, residues 157-882, mutations in the DxD motif of the N-terminal GT domain; source: Freestyle 293-F cells, co-transfected with CHPF, secreted; purified by the same protocol as the wild-type complexes; not shown: SUMO, N-terminal, cleaved; His6, N-terminal, cleaved
T3 sequence (looked up): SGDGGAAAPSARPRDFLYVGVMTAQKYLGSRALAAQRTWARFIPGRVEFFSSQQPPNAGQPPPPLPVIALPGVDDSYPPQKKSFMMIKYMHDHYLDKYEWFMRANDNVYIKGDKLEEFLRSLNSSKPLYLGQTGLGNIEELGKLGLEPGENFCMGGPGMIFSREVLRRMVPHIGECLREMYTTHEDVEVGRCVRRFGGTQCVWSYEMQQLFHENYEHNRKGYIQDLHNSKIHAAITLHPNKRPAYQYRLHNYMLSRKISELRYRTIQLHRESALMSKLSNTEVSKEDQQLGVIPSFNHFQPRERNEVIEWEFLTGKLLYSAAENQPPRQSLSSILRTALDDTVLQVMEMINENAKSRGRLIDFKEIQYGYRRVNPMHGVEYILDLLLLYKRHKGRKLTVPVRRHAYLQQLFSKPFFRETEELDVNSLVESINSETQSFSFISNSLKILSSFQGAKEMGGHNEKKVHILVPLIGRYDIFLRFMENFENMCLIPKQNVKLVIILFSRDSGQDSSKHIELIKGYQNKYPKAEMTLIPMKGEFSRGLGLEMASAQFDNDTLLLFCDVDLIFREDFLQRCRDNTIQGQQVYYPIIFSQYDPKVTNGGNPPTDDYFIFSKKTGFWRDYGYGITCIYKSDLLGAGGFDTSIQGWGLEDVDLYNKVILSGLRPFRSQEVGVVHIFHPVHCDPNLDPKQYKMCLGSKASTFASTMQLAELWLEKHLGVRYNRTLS

Measured: binding result

B1: Chondroitin Polymerizing Factor (CHPF), secreted N-terminally truncated construct aa81-aa775 (domain or fragment, human, UniProt Q8IZ52 81-775, looked up)
chain: GENWEPRVLPYHPAQPGQAAKKAVRTRYISTELGIRQRLLVAVLTSQTTLPTLGVAVNRTLGHRLERVVFLTGARGRRAPPGMAVVTLGEERPIGHLHLALRHLLEQHGDDFDWFFLVPDTTYTEAHGLARLTGHLSLASAAHLYLGRPQDFIGGEPTPGRYCHGGFGVLLSRMLLQQLRPHLEGCRNDIVSARPDEWLGRCILDATGVGCTGDHEGVHYSHLELSPGEPVQEGDPHFRSALTAHPVRDPVHMYQLHKAFARAELERTYQEIQELQWEIQNTSHLAVDGDQAAAWPVGIPAPSRPASRFEVLRWDYFTEQHAFSCADGSPRCPLRGADRADVADVLGTALEELNRRYHPALRLQKQQLVNGYRRFDPARGMEYTLDLQLEALTPQGGRRPLTRRVQLLRPLSRVEILPVPYVTEASRLTVLLPLAAAERDLAPGFLEAFATAALEPGDAAAALTLLLLYEPRQAQRVAHADVFAPVKAHVAELERRFPGARVPWLSVQTAAPSPLRLMDLLSKKHPLDTLFLLAGPDTVLTPDFLNRCRMHAISGWQAFFPMHFQAFHPAVAPPQGPGPPELGRDTGRFDRQAASEACFYNSDYVAARGRLAAASEQEEELLESLDVYELFLHFSSLHVLRAVEPALLQRYRAQTCSARLSEDLYHRCLQSVLEGLGSRTQLAMLLFEQEQGNST
notes: CHPF, human, UniProt Q8IZ52, residues 81-775 (membrane-spanning helix removed); Construct in pHR-CMV-TetO2 with an N-terminal chicken RPTP sigma signal peptide, SUMO, 6x His and a 3C site; a second 3C site stands before the C-terminal twin streptavidin tag; also called Chondroitin sulfate synthase 2; source: Freestyle 293-F cells, co-transfected, secreted; purified from the supernatant (HisTrap, …)
binds: all assays above
